Experimental data reported in US20240117018A1.

Tests used:
Assay in all cases: cell-based or functional assay
[1] = molecular target: HIV-1 Env of pseudovirus 6545.v4.c1 (HIV-1)
[2] = molecular target: HIV-1 Env of pseudovirus 231965.c01 (HIV-1)
[3] = molecular target: HIV-1 Env of pseudovirus 89-F1_2_25 (HIV-1)
[4] = molecular target: HIV-1 Env of pseudovirus 6041.v3.c23 (HIV-1)
[5] = molecular target: HIV-1 Env of pseudovirus BJOX028000.10.3 (HIV-1)
[6] = molecular target: HIV-1 Env of pseudovirus 3103.v3.c10 (HIV-1)
[7] = molecular target: HIV-1 Env of pseudovirus R2184.c04 (HIV-1)
[8] = molecular target: HIV-1 Env of pseudovirus 3016.v5.c45 (HIV-1)
[9] = molecular target: HIV-1 Env of pseudovirus C4118.c09 (HIV-1)
[10] = molecular target: HIV-1 Env of pseudovirus BJOX025000.01.1 (HIV-1)
[11] = molecular target: HIV-1 Env of pseudovirus 211-9 (HIV-1)
[12] = molecular target: HIV-1 Env of pseudovirus X2131_C1_B5 (HIV-1)
[13] = molecular target: HIV-1 Env of pseudovirus P0402_c2_11 (HIV-1)
[14] = molecular target: HIV-1 Env of pseudovirus 6540.v4.c1 (HIV-1)
[15] = molecular target: HIV-1 Env of pseudovirus X1254_c3 (HIV-1)
[16] = molecular target: HIV-1 Env of pseudovirus T278-50 (HIV-1)
[17] = molecular target: HIV-1 Env of pseudovirus 620345.c01 (HIV-1)
[18] = molecular target: HIV-1 Env of pseudovirus BJOX009000.02.4 (HIV-1)
[19] = molecular target: HIV-1 Env of pseudovirus 6952.v1.c20 (HIV-1)
[20] = molecular target: HIV-1 Env of pseudovirus X1193_c1 (HIV-1)
[21] = molecular target: HIV-1 Env of pseudovirus 3301.v1.c24 (HIV-1)
[22] = molecular target: HIV-1 Env of pseudovirus X2088_c9 (HIV-1)
[23] = molecular target: HIV-1 Env of pseudovirus T251-18 (HIV-1)
[24] = molecular target: HIV-1 Env of pseudovirus T257-31 (HIV-1)
[25] = molecular target: HIV-1 Env of pseudovirus R3265.c06 (HIV-1)
[26] = molecular target: HIV-1 Env of pseudovirus T255-34 (HIV-1)
[27] = molecular target: HIV-1 Env of pseudovirus C3347.c11 (HIV-1)
[28] = molecular target: HIV-1 Env of pseudovirus P1981_C5_3 (HIV-1)
[29] = molecular target: HIV-1 Env of pseudovirus 231966.c02 (HIV-1)
[30] = molecular target: HIV-1 Env of pseudovirus C1080.c03 (HIV-1)
[31] = molecular target: HIV-1 Env of pseudovirus BJOX010000.06.2 (HIV-1)
[32] = molecular target: HIV-1 Env of pseudovirus 263-8 (HIV-1)
[33] = molecular target: HIV-1 Env of pseudovirus 191084 B7-19 (HIV-1)
[34] = molecular target: HIV-1 Env of pseudovirus R1166.c01 (HIV-1)
[35] = molecular target: HIV-1 Env of pseudovirus 0815.v3.c3 (HIV-1)
[36] = molecular target: HIV-1 Env of pseudovirus 9004SS_A3_4 (HIV-1)
[37] = molecular target: HIV-1 Env of pseudovirus A07412M1.vrc12 (HIV-1)

PGT128 (antibody)
IC50 (Titer in TZM.bl cells) [1]: > 50 mg/L
IC80 (Titer in TZM.bl cells) [1]: > 50 mg/L
IC50 (Titer in TZM.bl cells) [2]: > 50 mg/L
IC80 (Titer in TZM.bl cells) [2]: > 50 mg/L
IC50 (Titer in TZM.bl cells) [3]: > 50 mg/L
IC80 (Titer in TZM.bl cells) [3]: > 50 mg/L
IC50 (Titer in TZM.bl cells) [4]: > 50 mg/L
IC80 (Titer in TZM.bl cells) [4]: > 50 mg/L
IC50 (Titer in TZM.bl cells) [5]: 0.024 mg/L
IC80 (Titer in TZM.bl cells) [5]: 0.07 mg/L
IC50 (Titer in TZM.bl cells) [6]: 0.014 mg/L
IC80 (Titer in TZM.bl cells) [6]: 0.033 mg/L
IC50 (Titer in TZM.bl cells) [7]: 20.1 mg/L
IC80 (Titer in TZM.bl cells) [7]: > 50 mg/L
IC50 (Titer in TZM.bl cells) [8]: > 50 mg/L
IC80 (Titer in TZM.bl cells) [8]: > 50 mg/L
IC50 (Titer in TZM.bl cells) [9]: > 50 mg/L
IC80 (Titer in TZM.bl cells) [9]: > 50 mg/L
IC50 (Titer in TZM.bl cells) [10]: > 50 mg/L
IC80 (Titer in TZM.bl cells) [10]: > 50 mg/L
IC50 (Titer in TZM.bl cells) [11]: 0.062 mg/L
IC80 (Titer in TZM.bl cells) [11]: 0.215 mg/L
IC50 (Titer in TZM.bl cells) [12]: > 50 mg/L
IC80 (Titer in TZM.bl cells) [12]: > 50 mg/L
IC50 (Titer in TZM.bl cells) [13]: 0.007 mg/L
IC80 (Titer in TZM.bl cells) [13]: 0.02 mg/L
IC50 (Titer in TZM.bl cells) [14]: 11.8 mg/L
IC80 (Titer in TZM.bl cells) [14]: > 50 mg/L
IC50 (Titer in TZM.bl cells) [15]: > 50 mg/L
IC80 (Titer in TZM.bl cells) [15]: > 50 mg/L
IC50 (Titer in TZM.bl cells) [16]: 0.031 mg/L
IC80 (Titer in TZM.bl cells) [16]: 0.089 mg/L
IC50 (Titer in TZM.bl cells) [17]: > 50 mg/L
IC80 (Titer in TZM.bl cells) [17]: > 50 mg/L
IC50 (Titer in TZM.bl cells) [18]: < 0.001 mg/L
IC80 (Titer in TZM.bl cells) [18]: 0.005 mg/L
IC50 (Titer in TZM.bl cells) [19]: > 50 mg/L
IC80 (Titer in TZM.bl cells) [19]: > 50 mg/L
IC50 (Titer in TZM.bl cells) [20]: > 50 mg/L
IC80 (Titer in TZM.bl cells) [20]: > 50 mg/L
IC50 (Titer in TZM.bl cells) [21]: 0.067 mg/L
IC80 (Titer in TZM.bl cells) [21]: 0.499 mg/L
IC50 (Titer in TZM.bl cells) [22]: > 50 mg/L
IC80 (Titer in TZM.bl cells) [22]: > 50 mg/L
IC50 (Titer in TZM.bl cells) [23]: > 50 mg/L
IC80 (Titer in TZM.bl cells) [23]: > 50 mg/L
neutralization IC50 [24]: > 50 mg/L
neutralization IC80 [24]: > 50 mg/L
IC50 (Titer in TZM.bl cells) [25]: > 50 mg/L
IC80 (Titer in TZM.bl cells) [25]: > 50 mg/L
IC50 (Titer in TZM.bl cells) [26]: > 50 mg/L
IC80 (Titer in TZM.bl cells) [26]: > 50 mg/L
IC50 (Titer in TZM.bl cells) [27]: 0.001 mg/L
IC80 (Titer in TZM.bl cells) [27]: 0.007 mg/L
IC50 (Titer in TZM.bl cells) [28]: 0.019 mg/L
IC80 (Titer in TZM.bl cells) [28]: 0.088 mg/L
IC50 (Titer in TZM.bl cells) [29]: 3.2 mg/L
IC80 (Titer in TZM.bl cells) [29]: > 50 mg/L
IC50 (Titer in TZM.bl cells) [30]: 0.283 mg/L
IC80 (Titer in TZM.bl cells) [30]: 2.06 mg/L
IC50 (Titer in TZM.bl cells) [31]: 4.82 mg/L
IC80 (Titer in TZM.bl cells) [31]: > 50 mg/L
neutralization IC50 [32]: 0.342 mg/L
neutralization IC80 [32]: 3.3 mg/L
neutralization IC50 [33]: 0.022 mg/L
neutralization IC80 [33]: 0.152 mg/L
IC50 (Titer in TZM.bl cells) [34]: > 50 mg/L
IC80 (Titer in TZM.bl cells) [34]: > 50 mg/L
IC50 (Titer in TZM.bl cells) [35]: 0.03 mg/L
IC80 (Titer in TZM.bl cells) [35]: 0.137 mg/L
neutralization IC50 [36]: 0.002 mg/L
neutralization IC80 [36]: 0.01 mg/L
IC50 (Titer in TZM.bl cells) [37]: > 50 mg/L
IC80 (Titer in TZM.bl cells) [37]: > 50 mg/L

PGT145 (antibody)
IC50 (Titer in TZM.bl cells) [1]: 0.114 mg/L
IC80 (Titer in TZM.bl cells) [1]: 3.1 mg/L
IC50 (Titer in TZM.bl cells) [2]: 0.403 mg/L
IC80 (Titer in TZM.bl cells) [2]: 15 mg/L
IC50 (Titer in TZM.bl cells) [3]: 0.8 mg/L
IC80 (Titer in TZM.bl cells) [3]: 20 mg/L
IC50 (Titer in TZM.bl cells) [4]: 0.964 mg/L
IC80 (Titer in TZM.bl cells) [4]: > 50 mg/L
IC50 (Titer in TZM.bl cells) [5]: > 50 mg/L
IC80 (Titer in TZM.bl cells) [5]: > 50 mg/L
IC50 (Titer in TZM.bl cells) [6]: 0.043 mg/L
IC80 (Titer in TZM.bl cells) [6]: 0.164 mg/L
IC50 (Titer in TZM.bl cells) [7]: 0.073 mg/L
IC80 (Titer in TZM.bl cells) [7]: 0.376 mg/L
IC50 (Titer in TZM.bl cells) [8]: > 50 mg/L
IC80 (Titer in TZM.bl cells) [8]: > 50 mg/L
IC50 (Titer in TZM.bl cells) [9]: < 0.001 mg/L
IC80 (Titer in TZM.bl cells) [9]: 0.004 mg/L
IC50 (Titer in TZM.bl cells) [10]: 6.63 mg/L
IC80 (Titer in TZM.bl cells) [10]: > 50 mg/L
IC50 (Titer in TZM.bl cells) [11]: 0.129 mg/L
IC80 (Titer in TZM.bl cells) [11]: 0.923 mg/L
IC50 (Titer in TZM.bl cells) [12]: 0.018 mg/L
IC80 (Titer in TZM.bl cells) [12]: 0.065 mg/L
IC50 (Titer in TZM.bl cells) [13]: 0.009 mg/L
IC80 (Titer in TZM.bl cells) [13]: 0.038 mg/L
IC50 (Titer in TZM.bl cells) [14]: 0.08 mg/L
IC80 (Titer in TZM.bl cells) [14]: 5.09 mg/L
IC50 (Titer in TZM.bl cells) [15]: 5.6 mg/L
IC80 (Titer in TZM.bl cells) [15]: > 50 mg/L
IC50 (Titer in TZM.bl cells) [16]: 10.3 mg/L
IC80 (Titer in TZM.bl cells) [16]: > 50 mg/L
IC50 (Titer in TZM.bl cells) [17]: 0.241 mg/L
IC80 (Titer in TZM.bl cells) [17]: 19.7 mg/L
IC50 (Titer in TZM.bl cells) [18]: 0.117 mg/L
IC80 (Titer in TZM.bl cells) [18]: 0.745 mg/L
IC50 (Titer in TZM.bl cells) [19]: 3.12 mg/L
IC80 (Titer in TZM.bl cells) [19]: > 50 mg/L
IC50 (Titer in TZM.bl cells) [20]: 0.013 mg/L
IC80 (Titer in TZM.bl cells) [20]: 0.091 mg/L
IC50 (Titer in TZM.bl cells) [21]: 0.219 mg/L
IC80 (Titer in TZM.bl cells) [21]: 4.22 mg/L
IC50 (Titer in TZM.bl cells) [22]: > 50 mg/L
IC80 (Titer in TZM.bl cells) [22]: > 50 mg/L
IC50 (Titer in TZM.bl cells) [23]: 0.351 mg/L
IC80 (Titer in TZM.bl cells) [23]: 1.39 mg/L
neutralization IC50 [24]: 5.18 mg/L
neutralization IC80 [24]: > 50 mg/L
IC50 (Titer in TZM.bl cells) [25]: 0.037 mg/L
IC80 (Titer in TZM.bl cells) [25]: 0.227 mg/L
IC50 (Titer in TZM.bl cells) [26]: > 50 mg/L
IC80 (Titer in TZM.bl cells) [26]: > 50 mg/L
IC50 (Titer in TZM.bl cells) [27]: 0.005 mg/L
IC80 (Titer in TZM.bl cells) [27]: 0.044 mg/L
IC50 (Titer in TZM.bl cells) [28]: 5.41 mg/L
IC80 (Titer in TZM.bl cells) [28]: > 50 mg/L
IC50 (Titer in TZM.bl cells) [29]: < 0.001 mg/L
IC80 (Titer in TZM.bl cells) [29]: 0.01 mg/L
IC50 (Titer in TZM.bl cells) [30]: 0.024 mg/L
IC80 (Titer in TZM.bl cells) [30]: 0.146 mg/L
IC50 (Titer in TZM.bl cells) [31]: > 50 mg/L
IC80 (Titer in TZM.bl cells) [31]: > 50 mg/L
neutralization IC50 [32]: 32.1 mg/L
neutralization IC80 [32]: > 50 mg/L
neutralization IC50 [33]: 0.028 mg/L
neutralization IC80 [33]: 0.345 mg/L
IC50 (Titer in TZM.bl cells) [34]: 2.27 mg/L
IC80 (Titer in TZM.bl cells) [34]: 17.9 mg/L
IC50 (Titer in TZM.bl cells) [35]: > 50 mg/L
IC80 (Titer in TZM.bl cells) [35]: > 50 mg/L
neutralization IC50 [36]: 0.018 mg/L
neutralization IC80 [36]: 0.419 mg/L
IC50 (Titer in TZM.bl cells) [37]: 0.002 mg/L
IC80 (Titer in TZM.bl cells) [37]: 0.023 mg/L
